Measurements: patent US20080175935A1, “Method to Treat Skin Conditions with Narcissus Tazetta Bulb Extract” (NuSkin International, Inc., priority 2004, published 2008)

Test system: arNOX
Assay: arNOX assay: ferricytochrome c reduction (superoxide production) in sera
Assay type: biochemical, human
Details: for Rate of reduction of ferricytochrome c, +Proteinase K: pooled serum
Source text: Reduction of ferric cytochrome c by superoxide was employed as a standard measure of superoxide formation (Mayo, L. A. and Cumutte, J. (1990) Meth. Enzyme. 186, 567-575. 7. Butler, J, Koppenol, W. H. and Margollash, E. (1982) J. Biol. Chem. 257, 10747).
Assays of ferric cytochrome c reduction in sera compared 53 samples from young (20 to 40 y) and 65 samples from aged (80 to 100) individuals. […]
Measurement of arNOX activity based on ferricytochrome c reduction as a measure of superoxide production were taken. The rate of reduction of ferricytochrome c was determined from the increase in absorbance at 550 nm with 540 nm as reference. This is a widely accepted method when coupled to superoxide dismutase inhibition for the measurement of superoxide generation. The assay consists of 150 μl (2 mg/ml) of oxidized ferricytochrome c solution and 150 μl serum or 40 μl buffy coats in PBSG buffer (8.06 g NaCl, 0.2 g KCl, 0.18 g Na2HPO4, 0.26 g KH2PO4, 0.13 g CaCl2, 0.1 g MgCl2, 1.35 g glucose dissolved in 1000 ml deionized water, adjusted to pH 7.4, filtered and stored at 4° C.). Rates were determined using a SLM Aminco DW-2000 spectrophotometer (Milton Roy, Rochester, N.Y., USA) in the dual wave length mode of operation with continuous measurements over 1 min every 1.5 min. After 45 min, test compound was added and the reaction was continued for 45 min. A millimolar extinction coefficient of 19.1 cm^−1 was used for reduced ferricytochrome c. (D. M. Morré, F. Guo and D. J. Morré, 2003, Mol. Cell. Biochem. 254: […]).

B1: Proteinase K: protease used to digest sera (protein, UniProt P06873 106-384, looked up)
Proteinase K: AAQTNAPWGLARISSTSPGTSTYYYDESAGQGSCVYVIDTGIEASHPEFEGRAQMVKTYYYSSRDGNGHGTHCAGTVGSRTYGVAKKTQLFGVKVLDDNGSGQYSTIIAGMDFVASDKNNRNCPKGVVASLSLGGGYSSSVNSAAARLQSSGVMVAVAAGNNNADARNYSPASEPSVCTVGASDRYDRRSSFSNYGSVLDIFGPGTSILSTWIGGSTRSISGTSMATPHVAGLAAYLMTLGKTTAASACRYIADTANKGDLSNIPFGTVNLLAYNNYQA
35-45 males
  Rate of reduction of ferricytochrome c, +Proteinase K: 0.27 ± 0.16 nmoles min^−1 mi serum^−1
75-85 females
  Rate of reduction of ferricytochrome c, +Proteinase K: 1.0 ± 0.18 nmoles min^−1 mi serum^−1
75-85 males
  Rate of reduction of ferricytochrome c, +Proteinase K: 0.72 ± 0.14 nmoles min^−1 mi serum^−1
<35 y females
  Rate of reduction of ferricytochrome c, +Proteinase K: 0.26 ± 0.17 nmoles min^−1 mi serum^−1
>90 females
  Rate of reduction of ferricytochrome c, +Proteinase K: 0.94 ± 0.24 nmoles min^−1 mi serum^−1
sera
  change in the rate of arNOX following proteinase K digestion: no significant decrease
Sera of aged (80-98 y) individuals, after proteinase K, n = 10
  Superoxide production (reduction of ferricytochrome c), without superoxide dismutase: 0.6 ± 0.2 Nmoles/min/mi/sera
